Literature values as cited in PMC3727217.

Target: His87 (UniProt position 88, YGATGHPGIIP)
Experiment: NMR
Conditions: not stated (context implies ligand-free FKBP12; ref 47 studied both the absence and presence of ligands)

Substance: FK506-binding protein FKBP12 (peptidyl-prolyl cis-trans isomerase FKBP1A) (Homo sapiens)
- pKa: 5.92
